B1: Melanophilin (Homo sapiens), Q9BV36 (parent)
chain: MGKKLDLSKLTDEEAQHVLEVVQRDFDLRRKEEERLEALKGKIKKESSKRELLSDTAHLNETHCARCLQPYQLLVNSKRQCLECGLFTCKSCGRVHPEEQGWICDPCHLARVVKIGSLEWYYEHVKARFKRFGSAKVIRSLHGRLQGGAGPELISEERSGDSDQTDEDGEPGSEAQAQAQPFGSKKKRLLSVHDFDFEGDSDDSTQPQGHSLHLSSVPEARDSPQSLTDESCSEKAAPHKAEGLEEADTGASGCHSHPEEQPTSISPSRHGALAELCPPGGSHRMALGTAAALGSNVIRNEQLPLQYLADVDTSDEESIRAHVMASHHSKRRGRASSESQIFELNKHISAVECLLTYLENTVVPPLAKGLGAGVRTEADVEEEALRRKLEELTSNVSDQETSSEEEEAKDEKAEPNRDKSVGPLPQADPEVGTAAHQTNRQEKSPQDPGDPVQYNRTTDEELSELEDRVAVTASEVQQAESEVSDIESRIAALRAAGLTVKPSGKPRRKSNLPIFLPRVAGKLGKRPEDPNADPSSEAKAMAVPYLLRRKFSNSLKSQGKDDDSFDRKSVYRGSLTQRNPNARKGMASHTFAKPVVAHQS

Variants of: B1
Details: with rb27a_human RAB27A

effect of a mutation on the interaction	Variant
disrupting interaction	MGKKLDLSKLTDEEAQHVLEVVQRDFDLRRKEEEFLEALKGKIKKESSKRELLSDTAHLNETHCARCLQPYQLLVNSKRQCLECGLFTCKSCGRVHPEEQGWICDPCHLARVVKIGSLEWYYEHVKARFKRFGSAKVIRSLHGRLQGGAGPELISEERSGDSDQTDEDGEPGSEAQAQAQPFGSKKKRLLSVHDFDFEGDSDDSTQPQGHSLHLSSVPEARDSPQSLTDESCSEKAAPHKAEGLEEADTGASGCHSHPEEQPTSISPSRHGALAELCPPGGSHRMALGTAAALGSNVIRNEQLPLQYLADVDTSDEESIRAHVMASHHSKRRGRASSESQIFELNKHISAVECLLTYLENTVVPPLAKGLGAGVRTEADVEEEALRRKLEELTSNVSDQETSSEEEEAKDEKAEPNRDKSVGPLPQADPEVGTAAHQTNRQEKSPQDPGDPVQYNRTTDEELSELEDRVAVTASEVQQAESEVSDIESRIAALRAAGLTVKPSGKPRRKSNLPIFLPRVAGKLGKRPEDPNADPSSEAKAMAVPYLLRRKFSNSLKSQGKDDDSFDRKSVYRGSLTQRNPNARKGMASHTFAKPVVAHQS [R35F]
disrupting interaction	MGKKLDLSKLTDEEAQHVLEVVQRDFDLRRKEEEVLEALKGKIKKESSKRELLSDTAHLNETHCARCLQPYQLLVNSKRQCLECGLFTCKSCGRVHPEEQGWICDPCHLARVVKIGSLEWYYEHVKARFKRFGSAKVIRSLHGRLQGGAGPELISEERSGDSDQTDEDGEPGSEAQAQAQPFGSKKKRLLSVHDFDFEGDSDDSTQPQGHSLHLSSVPEARDSPQSLTDESCSEKAAPHKAEGLEEADTGASGCHSHPEEQPTSISPSRHGALAELCPPGGSHRMALGTAAALGSNVIRNEQLPLQYLADVDTSDEESIRAHVMASHHSKRRGRASSESQIFELNKHISAVECLLTYLENTVVPPLAKGLGAGVRTEADVEEEALRRKLEELTSNVSDQETSSEEEEAKDEKAEPNRDKSVGPLPQADPEVGTAAHQTNRQEKSPQDPGDPVQYNRTTDEELSELEDRVAVTASEVQQAESEVSDIESRIAALRAAGLTVKPSGKPRRKSNLPIFLPRVAGKLGKRPEDPNADPSSEAKAMAVPYLLRRKFSNSLKSQGKDDDSFDRKSVYRGSLTQRNPNARKGMASHTFAKPVVAHQS [R35V]
disrupting interaction	MGKKLDLSKLTDEEAQHVLEVVQRDFDLRRKEEEKLEALKGKIKKESSKRELLSDTAHLNETHCARCLQPYQLLVNSKRQCLECGLFTCKSCGRVHPEEQGWICDPCHLARVVKIGSLEWYYEHVKARFKRFGSAKVIRSLHGRLQGGAGPELISEERSGDSDQTDEDGEPGSEAQAQAQPFGSKKKRLLSVHDFDFEGDSDDSTQPQGHSLHLSSVPEARDSPQSLTDESCSEKAAPHKAEGLEEADTGASGCHSHPEEQPTSISPSRHGALAELCPPGGSHRMALGTAAALGSNVIRNEQLPLQYLADVDTSDEESIRAHVMASHHSKRRGRASSESQIFELNKHISAVECLLTYLENTVVPPLAKGLGAGVRTEADVEEEALRRKLEELTSNVSDQETSSEEEEAKDEKAEPNRDKSVGPLPQADPEVGTAAHQTNRQEKSPQDPGDPVQYNRTTDEELSELEDRVAVTASEVQQAESEVSDIESRIAALRAAGLTVKPSGKPRRKSNLPIFLPRVAGKLGKRPEDPNADPSSEAKAMAVPYLLRRKFSNSLKSQGKDDDSFDRKSVYRGSLTQRNPNARKGMASHTFAKPVVAHQS [R35K]

Variants of: B1
Details: with rb27a_human RAB27A
Remark: another data set of the same source

effect of a mutation on the interaction	Variant
disrupting interaction	MGKKLDLSKLTDEEAQHVLEVVQRDFDLRRKEEEWLEALKGKIKKESSKRELLSDTAHLNETHCARCLQPYQLLVNSKRQCLECGLFTCKSCGRVHPEEQGWICDPCHLARVVKIGSLEWYYEHVKARFKRFGSAKVIRSLHGRLQGGAGPELISEERSGDSDQTDEDGEPGSEAQAQAQPFGSKKKRLLSVHDFDFEGDSDDSTQPQGHSLHLSSVPEARDSPQSLTDESCSEKAAPHKAEGLEEADTGASGCHSHPEEQPTSISPSRHGALAELCPPGGSHRMALGTAAALGSNVIRNEQLPLQYLADVDTSDEESIRAHVMASHHSKRRGRASSESQIFELNKHISAVECLLTYLENTVVPPLAKGLGAGVRTEADVEEEALRRKLEELTSNVSDQETSSEEEEAKDEKAEPNRDKSVGPLPQADPEVGTAAHQTNRQEKSPQDPGDPVQYNRTTDEELSELEDRVAVTASEVQQAESEVSDIESRIAALRAAGLTVKPSGKPRRKSNLPIFLPRVAGKLGKRPEDPNADPSSEAKAMAVPYLLRRKFSNSLKSQGKDDDSFDRKSVYRGSLTQRNPNARKGMASHTFAKPVVAHQS [R35W]
